According to patent US20240239878A1 (SHANGHAI QILU PHARMACEUTICAL RESEARCH AND DEVELOPMENT CENTRE, published 2024):
Changes are numbered by the printed parent chain.

T1: human DLL3 antigen protein (Kactus Biosystems, Cat. No. DLL-HM103) (human, UniProt Q9NYJ7 27-492)
T1 sequence: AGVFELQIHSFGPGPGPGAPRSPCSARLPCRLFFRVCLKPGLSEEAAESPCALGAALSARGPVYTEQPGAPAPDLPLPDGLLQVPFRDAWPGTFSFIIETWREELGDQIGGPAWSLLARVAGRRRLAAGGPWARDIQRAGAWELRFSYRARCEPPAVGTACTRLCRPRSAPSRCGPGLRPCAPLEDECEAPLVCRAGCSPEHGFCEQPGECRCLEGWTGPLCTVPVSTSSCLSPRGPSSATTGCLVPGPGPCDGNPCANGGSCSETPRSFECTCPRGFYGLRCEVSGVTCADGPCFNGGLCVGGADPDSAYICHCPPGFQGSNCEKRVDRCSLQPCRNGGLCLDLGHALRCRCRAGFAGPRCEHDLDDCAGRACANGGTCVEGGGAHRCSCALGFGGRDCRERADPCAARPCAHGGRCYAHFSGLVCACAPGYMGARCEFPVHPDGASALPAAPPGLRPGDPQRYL

T2: Cynomolgus monkey DLL3 antigen protein (Kactus Biosystems, Cat. No. CM103) (Cynomolgus monkey, UniProt Q9NYJ7 27-490 (human entry))
T2 construct: also called cyno DLL3
T2 chain: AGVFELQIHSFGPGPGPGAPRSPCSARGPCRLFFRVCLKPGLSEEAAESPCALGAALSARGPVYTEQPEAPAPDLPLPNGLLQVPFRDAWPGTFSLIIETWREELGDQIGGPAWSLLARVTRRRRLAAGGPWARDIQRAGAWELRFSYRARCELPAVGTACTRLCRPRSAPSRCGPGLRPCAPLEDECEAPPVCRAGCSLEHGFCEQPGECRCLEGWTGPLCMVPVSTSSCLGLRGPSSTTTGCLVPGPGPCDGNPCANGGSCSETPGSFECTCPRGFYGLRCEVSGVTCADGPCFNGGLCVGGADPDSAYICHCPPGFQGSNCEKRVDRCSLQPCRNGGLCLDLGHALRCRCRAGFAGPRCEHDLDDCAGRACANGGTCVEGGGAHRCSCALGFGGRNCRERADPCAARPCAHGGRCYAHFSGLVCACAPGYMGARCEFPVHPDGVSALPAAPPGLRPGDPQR

B1: DLL3-3 VHH (IPTG-induced supernatant, with his and c-Myc labels) (VHH)
VHH: DVQLVESGGGSVQAGGSLKLSCKSPTYTISSGYMGWFRQAPGKEREGVAAIYIGGSTTLYADSVKGRFTISADNAEKTVYLQMNTLKPEDSAMYYCAAQLRPNSAYHPLDGRKYNYWGQGTQVTVSS
notes: not shown: his and c-Myc labels
B2: DLL3-26 VHH (IPTG-induced supernatant, with his and c-Myc labels) (VHH)
VHH: QVQLVESGGGSVQAGGSLRLSCAASGDIYSSSYVGWFRQAPGKEREGVAIIYTSGDSTYYANSVKGRFTISQDKAKKTLYLQMNSLKPEDTAMYYCAARFAIDNSNYWGQGTQVTVSS
notes: as for B1
B3: DLL3-122 VHH (IPTG-induced supernatant, with his and c-Myc labels) (VHH)
VHH: QVQLVESGGGSVQAGGSLRLSCTASGDTYRSYCMGWFRKAPGKEREGVADIVSDGSTSYADSVKGRFTISKDNAKNTLYLQMNSLKPEDTAMYYCAVDRGGSGGYCYTGRYDYWGQGTQVTVSS
notes: as for B1
B4: DLL3-276 VHH (IPTG-induced supernatant, with his and c-Myc labels) (VHH)
VHH: QVQLVESGGGSVQAGGSLNLSCATSGSTASTTYMGWFRQAPGKGREGVAIIYTARDNPWYANSVKGRFIISQDNAKKTLYLQMNTLKPEDTATYYCAATLANPTRTAWGQGTLVTVSS
notes: as for B1
B5: DLL3-12 VHH (IPTG-induced supernatant, with his and c-Myc labels) (VHH)
VHH: QVQLVESGGGLVQPGESLRLSCAGSGFAFSSYDMHWVRQAPGKDFEWVSSISRDGRGPRYADFVKGRFTISKDNGRNMLYLQLNSLEIEDTAMYYCSKGYPIMGGTTQGTQVTVSS
notes: as for B1
B6: H2-39E2D11-AS humanized antibody variant (antibody, V domains shown)
VH: QVQLVQSGAEVKKPGASVKVSCKASGYTFISYWITWVRQAPGQGLEWMGDIYPGSGSTTNYNEKFKSRVTMTRDTSTSTVYMELSSLRSEDTAVYYCARETTVGGAYAMDYWGQGTLVTVSS
VL: EIVLTQSPATLSLSPGERATLSCRASQSINNNLHWYQQKPGQAPRLLIKYVSQSISGIPARFSGSGSGTDFTLTISSLEPEDFAVYYCQQTASWPLTFGGGTKLEIK
notes: Variant of H2-39E2D11; Its constant regions are not restated
B7: H2-39E2D11-NA humanized antibody variant (antibody, V domains shown)
VH: B6 VH
VL: B6 VL with A92N, S93A
notes: as for B6
B8: H2-39E2D11-QS humanized antibody variant (antibody, V domains shown)
VH: B6 VH
VL: B6 VL with A92Q
notes: as for B6

Each binder was assayed against T1, human DLL3 antigen protein (Kactus …) (assay: ELISA, antigen coated at 2 ug/ml, induced supernatant, anti-Myc HRP).
Protocol: (§1) In order to obtain a positive antibody that can cross-bind to human DLL3 and Cynomolgus monkey DLL3, the above library was amplified and added to the M13K07 helper phage to assemble phage. 1×10¹² pfu camel immune library phage was added and incubated with biotinylated human DLL3 proteins (8 μg/mL) bound to magnetic beads for 1 h at room temperature. After washing with 0.05% PBST to remove unbound phage, the phage specifically bound to DLL3 was eluted with 100 mM triethylamine. After gradient dilution, log-phase growth of E. coli SS320 was infected and spread on an ampicillin plate overnight at 37° C. A single clone was picked for IPTG-induced expression and the supernatant was used for ELISA detection. The ELISA plate was coated with 2 μg/ml human DLL3 or Cynomolgus monkey DLL3 antigen respectively overnight at 4° C. The plate was washed with 0.05% PBST 3 times, then blocked with 5% skimmed milk for 1 h at room temperature, and washed with 0.05% PBST 3 times. Then 30 μL of induced supernatant was added to each well, and a culture medium was added to a negative control well. The plate was incubated for 1 h at room temperature. Finally, anti-Myc HRP detection was performed (VHH expressed by IPTG induction has his and c-Myc labels). The amino acid sequences of the five heavy chain antibody variable regions of the present disclosure were obtained by sequencing clones from the ELISA assay that bound human and Cynomolgus monkey DLL3 with OD450 values greater than 1.0 and ELISA OD450 ratios greater than 3 to the medium as negative control, with the results shown in Table 1: […]

For B1, which “ELISA OD450 ratio to the medium negative control” value (shortened to “ELISA OD450 ratio”) is on record?
The value was > 3 fold.

What about the OD450 of the same binder?
The OD450 was > 1 OD450.

Which “ELISA OD450 ratio” value does the source give for B2 here?
Its value is > 3 fold.

What about the OD450 of the same binder?
The OD450 was > 1 OD450.

B3 was tested. Which “ELISA OD450 ratio” value did it give?
The value was > 3 fold.

And the OD450?
The OD450 was > 1 OD450.

For B4, which “ELISA OD450 ratio” value is on record?
The value was > 3 fold.

What about the OD450 of the same binder?
The OD450 was > 1 OD450.

Which “ELISA OD450 ratio” value does the source give for B5 here?
Its value is > 3 fold.

What about the OD450 of the same binder?
Its OD450 is > 1 OD450.

Target: T2, Cynomolgus monkey DLL3 antigen protein …
Experiment: as above
Protocol: as §1

How did the “ELISA OD450 ratio” value turn out when B1 was run?
Its value is > 3 fold.

And the OD450?
Its OD450 is > 1 OD450.

What does the source list for B2?
ELISA OD450 ratio to the medium negative control: > 3 fold; OD450: > 1 OD450

What does the source list for B3?
ELISA OD450 ratio to the medium negative control: > 3 fold; OD450: > 1 OD450

For B4, which “ELISA OD450 ratio” value is on record?
Its value is > 3 fold.

What about the OD450 of the same binder?
The OD450 was > 1 OD450.

Which “ELISA OD450 ratio” value does the source give for B5 here?
The value was > 3 fold.

What about the OD450 of the same binder?
Its OD450 is > 1 OD450.

These binders were tested against T1, human DLL3 antigen protein (Kactus …) (assay: affinity assay with human DLL3 antigen protein (kinetics; method not restated, Biacore as in Example 18 implied)).

What does the source list for B6?
Kd: 1760 pM; koff: 0.000362 s⁻¹; kon: 206000 M⁻¹ s⁻¹

For B7, which Kd is on record?
Its Kd is 484 pM.

What about the koff of the same binder?
The koff was 0.00012 s⁻¹.

What about the kon of the same binder?
The kon was 247000 M⁻¹ s⁻¹.

B8 was tested. Which Kd did it give?
Its Kd is 229 pM.

And the koff?
The koff was 3.91e-05 s⁻¹.

What about the kon of the same binder?
The kon was 171000 M⁻¹ s⁻¹.

Target: T2, Cynomolgus monkey DLL3 antigen protein …
Experiment: affinity assay with Cynomolgus monkey DLL3 antigen protein (kinetics; method not restated, Biacore as in Example 18 implied)

B6 was tested. Which Kd did it give?
Its Kd is 1630 pM.

What about the koff of the same binder?
The koff was 0.000427 s⁻¹.

What about the kon of the same binder?
The kon was 262000 M⁻¹ s⁻¹.

For B7, which Kd is on record?
The Kd was 346 pM.

What about the koff of the same binder?
The koff was 8.09e-05 s⁻¹.

What about the kon of the same binder?
The kon was 233000 M⁻¹ s⁻¹.

Which results are given for B8?
Kd: 434 pM; koff: 8.59e-05 s⁻¹; kon: 198000 M⁻¹ s⁻¹
